Experimental findings from patent US20250090876A1 (MEDICAL COLLEGE OF WISCONSIN, published 2025) are described below.

One experiment addresses T1, purified CRR9 ectodomain (human, UniProt Q5R7B1 32-284 (Pongo abelii entry), limits assumed).
T1 construct: also called CLPTM1L ectodomain
T1 sequence: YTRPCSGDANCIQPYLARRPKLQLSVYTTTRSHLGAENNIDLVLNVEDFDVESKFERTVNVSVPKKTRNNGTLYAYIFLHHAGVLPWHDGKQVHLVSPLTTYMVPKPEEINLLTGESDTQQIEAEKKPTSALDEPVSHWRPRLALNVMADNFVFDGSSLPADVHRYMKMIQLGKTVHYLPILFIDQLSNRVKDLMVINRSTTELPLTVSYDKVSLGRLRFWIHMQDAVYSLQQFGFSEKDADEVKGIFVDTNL
The experiment is described as follows: ELISA with purified CRR9 ectodomain.

The target of another experiment is T2, mouse CLPTM1L protein (mouse, UniProt Q8BXA5 1-539).
T2 construct: whole, on cells; also called the mouse protein
T2 sequence (looked up): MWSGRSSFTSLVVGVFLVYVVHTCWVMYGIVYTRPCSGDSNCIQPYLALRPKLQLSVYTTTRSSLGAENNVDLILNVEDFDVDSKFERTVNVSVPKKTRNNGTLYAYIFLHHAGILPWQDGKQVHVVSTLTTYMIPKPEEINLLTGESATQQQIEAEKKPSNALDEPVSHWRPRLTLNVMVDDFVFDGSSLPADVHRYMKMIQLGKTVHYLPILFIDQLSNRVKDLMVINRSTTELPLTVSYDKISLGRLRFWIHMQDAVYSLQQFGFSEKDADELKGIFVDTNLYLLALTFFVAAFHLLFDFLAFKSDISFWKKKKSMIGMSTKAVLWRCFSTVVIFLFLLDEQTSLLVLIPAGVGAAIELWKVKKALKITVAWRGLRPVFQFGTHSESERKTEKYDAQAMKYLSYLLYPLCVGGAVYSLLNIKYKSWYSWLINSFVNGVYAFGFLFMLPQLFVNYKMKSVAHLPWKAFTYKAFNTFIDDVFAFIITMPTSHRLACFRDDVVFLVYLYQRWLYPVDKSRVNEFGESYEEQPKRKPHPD
The experiment is described as follows: flow cytometry on live ID8-luc mouse ovarian tumor cells (102-5 primary by the legend of FIG. 31A). Here is the method: (E) Final relative mean volumes of SL3 and SL3cis xenograft tumors 24 days post-inoculation. […] (F) Mean volumes of SL3 and SL3cis xenograft tumors relative to group mean volume after sorting from days 0 to 24 post-inoculation. *p<0.05, **p<0.005, ***p<0.0005. Error bars represent standard error of the mean.
Flow cytometry was conducted per AbCam protocol for indirect flow cytometry. Tumor cells were harvested by trypsinization and suspended in cold PBS, 10% FBS, 0.05% NaN₃. 100 μL of cell suspension was added to 12×75 mm polystyrene tubes. 10 μg/mL of primary antibody diluted in PBS 3% BSA was added and tubes were incubated at 4° C. in the dark for 45 minutes. After washing 3 times in cold PBS, cells were resuspended in rabbit anti-Human Fc (H&L)-Alexafluor 488 (Abcam) in PBS 3% BSA and incubated at 4 C in the dark for 30 minutes. After washing 3 times in cold PBS, cells were suspended in 500 μL cold PBS, 3% BSA, 0.05% NaN₃ and analyzed on an Accuri C6 flow cytometer. Cells were gated for live cells based on scatter and fluorescence was plotted on a histogram using Flowing Software 2 (Turku Bioimaging).
In general terms: Flow cytometry measures light scatter and fluorescence of single cells or particles in a stream.

Experiment [1] deals with T3, human CLPTM1L/CRR9 protein (human, UniProt Q96KA5 1-538).
T3 construct: also called Cisplatin Resistance Related Protein-9; Cleft-Lip and Palate Transmembrane Protein-Like Protein 1
T3 sequence: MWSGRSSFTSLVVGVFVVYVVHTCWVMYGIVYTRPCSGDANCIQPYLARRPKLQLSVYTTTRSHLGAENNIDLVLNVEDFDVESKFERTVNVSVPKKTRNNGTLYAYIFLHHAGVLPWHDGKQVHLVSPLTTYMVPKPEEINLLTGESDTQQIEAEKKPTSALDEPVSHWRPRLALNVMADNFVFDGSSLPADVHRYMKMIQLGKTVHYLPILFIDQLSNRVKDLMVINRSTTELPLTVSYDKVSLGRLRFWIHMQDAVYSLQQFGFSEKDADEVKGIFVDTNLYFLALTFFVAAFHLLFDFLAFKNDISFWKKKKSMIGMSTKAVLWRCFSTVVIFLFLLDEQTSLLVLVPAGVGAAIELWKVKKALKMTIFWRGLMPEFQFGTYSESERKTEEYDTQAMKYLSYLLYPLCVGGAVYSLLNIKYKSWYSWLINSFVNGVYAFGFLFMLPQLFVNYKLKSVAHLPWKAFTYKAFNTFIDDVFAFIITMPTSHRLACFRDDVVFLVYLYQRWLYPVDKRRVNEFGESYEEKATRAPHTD
The experiment is described as follows: on-cell detection of fluorescently labeled 102-5 on live Panc1 tumor cells, with or without competitors (excess 10-2 mouse ascites or excess purified CRR9 ectodomain).

B1: 102-5 full-length human IgG1 anti-CLPTM1L (antibody, V domains shown)
VH: EVQLLESGGGLVQPGGSLRLSCAASGFSFSSYEMNWVRQAPGKGPEWISYISSGGGTIYYADSVRGRFTISRDNSNNTLYLQMNSLRPDDTAIYYCARDRGRKWLQLLFDSWGQGTLVTVSS
VL: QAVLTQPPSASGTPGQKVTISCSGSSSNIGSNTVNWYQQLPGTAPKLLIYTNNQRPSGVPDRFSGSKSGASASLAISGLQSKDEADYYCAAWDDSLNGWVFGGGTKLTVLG
notes: also called ESS102-5
As to B1, binding in the experiment with purified CRR9 ectodomain was put at a Kd of 1 nM. Further, the binding result (with mouse CLPTM1L protein; in experiment [1]) was “binds” throughout.
